{"source": "paper PMC9138599", "about": "“Clade-Specific Alterations within the HIV-1 Capsid Protein with Implications for Nuclear Translocation” (Biomolecules, 2022)", "key": {"[1]": {"target": "HIV-1 CA hexamer from clade A1 (isolate 92UG037.1) (HIV-1 isolate 92UG037.1 (clade A1))", "assay": "cross-linking"}, "[2]": {"target": "HIV-1 CA hexamer from clade D (isolate 94UG114.1) (HIV-1 isolate 94UG114.1 (clade D))", "assay": "cross-linking"}, "[3]": {"target": "HIV-1 CA hexamer from clade D (isolate 94UG114.1) (HIV-1 isolate 94UG114.1 (clade D))", "assay": "SPR; CA hexamer amine-coupled to a ProteOn GLH chip, peptide injected as analyte; 25 °C; 1x PBS pH 7.4, 3% DMSO, 0.005% polysorbate 20; reference surface IgG b12; 1:1 binding model; KD from a Langmuir isotherm equilibrium fit and from a global kinetic fit; triplicate"}, "[4]": {"target": "HIV-1 CA hexamer from clade C (isolate 92BR025.8) (HIV-1 isolate 92BR025.8 (clade C))", "assay": "SPR; CA hexamer amine-coupled to a ProteOn GLH chip, peptide injected as analyte; 25 °C; 1x PBS pH 7.4, 3% DMSO, 0.005% polysorbate 20; reference surface IgG b12; 1:1 binding model; KD from a Langmuir isotherm equilibrium fit and from a global kinetic fit; triplicate"}, "[5]": {"target": "HIV-1 CA hexamer from clade A2 (isolate CDKTB48) (HIV-1 isolate CDKTB48 (clade A2))", "assay": "SPR; CA hexamer amine-coupled to a ProteOn GLH chip, peptide injected as analyte; 25 °C; 1x PBS pH 7.4, 3% DMSO, 0.005% polysorbate 20; reference surface IgG b12; 1:1 binding model; KD from a Langmuir isotherm equilibrium fit and from a global kinetic fit; triplicate"}, "[6]": {"target": "HIV-1 CA hexamer from clade B (isolate NL4-3) (HIV-1 isolate NL4-3 (clade B))", "assay": "cross-linking"}, "[7]": {"target": "HIV-1 CA hexamer from clade A2 (isolate CDKTB48) (HIV-1 isolate CDKTB48 (clade A2))", "assay": "cross-linking"}, "[8]": {"target": "NUP-153 RRR patch (Homo sapiens) (UniProt P49790)", "conditions": "cited from earlier work"}, "[9]": {"target": "HIV-1 CA hexamer from clade C (isolate 92BR025.8) (HIV-1 isolate 92BR025.8 (clade C))", "assay": "cross-linking"}}, "note": "Where “and” joins values, the source holds several entries; their conditions need not be identical. Identical values can stand only once."}
{"substance": "HIV-1 CA hexamer from clade A1 (isolate 92UG037.1) (natural protein)", "values": [{"measurement": "stoichiometry N", "setting": "[1]", "value": 6}]}
{"substance": "HIV-1 CA hexamer from clade D (isolate 94UG114.1) (natural protein)", "values": [{"measurement": "stoichiometry N", "setting": "[2]", "value": 6}]}
{"substance": "NUP-153 peptide (1407-…-1423)", "values": [{"measurement": "Kd", "setting": "[3]", "value": "309 µM and 368 µM"}, {"measurement": "Kd", "setting": "[4]", "value": "503 µM and 881 µM"}, {"measurement": "Kd", "setting": "[5]", "value": "443 µM and 746 µM"}]}
{"substance": "HIV-1 CA hexamer from clade B (isolate NL4-3) (natural protein)", "values": [{"measurement": "stoichiometry N", "setting": "[6]", "value": 6}]}
{"substance": "HIV-1 CA hexamer from clade A2 (isolate CDKTB48) (natural protein)", "values": [{"measurement": "stoichiometry N", "setting": "[7]", "value": 6}]}
{"substance": "CA (from UniProt O93215)", "values": [{"measurement": "Kd", "setting": "[8]", "value": 0.8, "unit": "µM"}]}
{"substance": "HIV-1 CA hexamer from clade C (isolate 92BR025.8) (natural protein)", "values": [{"measurement": "stoichiometry N", "setting": "[9]", "value": 6}]}
